Assay [1] addresses Fc-tagged fibre 1 of the novel FAdV-4 (fowl adenovirus serotype 4 (FAdV-4), strain HLJFAd15).
The target is the same in assay [2]. This is another data set of the same source.

“Fc-tagged CAR protein, soluble (Fc fusion)” returned a block of FAdV-4 infection of LMH cells (qPCR at 24 hpi) after pre-incubation of the virus with 3.125–12.5 ng/μl soluble CAR protein; Fc protein as negative control in assay [1] of 76 to 80%.
The substance “D2 domain of chicken CAR, soluble, His-tagged (domain or fragment)” displayed a block of FAdV-4 infectivity in LMH cells (qPCR at 24 hpi) after pre-incubation of the virus with 12.5 or 25.0 ng/μl D2-CAR; 78% at 12.5 ng/μl, 99.9% at 25 ng/μl in assay [2] of 99.9%.

These data come from paper PMC7144210.
